The text below walks through data of article PMC12442453.

Assay [1] has as its target T1, human EPOR ectodomain (ECD) fused to a human Fc domain (EPOR-Fc), P19235.
T1 chain: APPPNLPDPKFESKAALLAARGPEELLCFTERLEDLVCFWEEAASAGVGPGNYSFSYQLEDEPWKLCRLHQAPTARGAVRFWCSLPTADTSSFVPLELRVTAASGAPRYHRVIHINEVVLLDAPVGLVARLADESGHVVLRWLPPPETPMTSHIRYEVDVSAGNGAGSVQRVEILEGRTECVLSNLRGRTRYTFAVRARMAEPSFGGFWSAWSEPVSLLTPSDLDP
In words: BLI. Particulars: chain shown with the change; solution-phase Db-Fc, immobilized EPOR-Fc.

Assay [2] has as its target VL–VH 1.1 without an Fc domain. Kind of assay: crystal structure; VL–VH 1.1 alone, space group P21, 2.06 Å, four chains in the asymmetric unit; 20% PEG8000, 100 mM CHES.
Assay [3] addresses T2, human EPOR, endogenous on TF-1 cells (human (endogenous in TF-1)) (UniProt P19235).
T2 sequence: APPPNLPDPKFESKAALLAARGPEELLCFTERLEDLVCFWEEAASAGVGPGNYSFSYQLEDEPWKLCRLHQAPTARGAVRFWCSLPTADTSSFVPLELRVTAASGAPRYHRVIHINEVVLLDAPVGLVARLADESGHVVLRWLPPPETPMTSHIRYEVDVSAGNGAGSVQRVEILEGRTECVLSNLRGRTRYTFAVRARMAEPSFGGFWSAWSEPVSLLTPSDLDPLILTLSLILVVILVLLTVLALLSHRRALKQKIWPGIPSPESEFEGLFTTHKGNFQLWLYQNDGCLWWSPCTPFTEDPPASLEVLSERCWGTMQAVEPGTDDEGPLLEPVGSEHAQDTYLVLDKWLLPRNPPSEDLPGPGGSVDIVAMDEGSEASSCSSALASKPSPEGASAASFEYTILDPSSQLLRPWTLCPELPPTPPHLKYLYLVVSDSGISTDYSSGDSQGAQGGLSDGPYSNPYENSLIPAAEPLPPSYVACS

B1: Db-Fc 1 L:Y109D; L:I116F; H:Y35R; H:I39M; H:Y59H; H:S63G; H:G114S (protein)
chain 1: EVQLVESGGGLVQPGGSLRLSCAASGFNLRSYYMHWVRQAPGKGLEWVASISPHYGYTYYADSVKGRFTISADTSKNTAYLQMNSLRAEDTAVYYCARHGYSAMDYWGQGTLVTVSS
chain 2: DIQMTQSPSSLSASVGDRVTITCRASQSVSSAVAWYQQKPGKAPKLLIYSASSLYSGVPSRFSGSRSGTDFTLTISSLQPEDFATYYCQQSSDSLFTFGQGTKVEIK
B1 yielded a Kd in assay [1] of 3.8 nM.

B2: VL–VH 1.1 without an Fc domain (protein)
VH: EVQLVESGGGLVQPGGSLRLSCAASGFNLRSYYMHWVRQAPGKGLEWVASISPYYSYTYYADSVKGRFTISADTSKNTAYLQMNSLRAEDTAVYYCARHGYGAMDYWGQGTLVTVSS
VL: DIQMTQSPSSLSASVGDRVTITCRASQSVSSAVAWYQQKPGKAPKLLIYSASSLYSGVPSRFSGSRSGTDFTLTISSLQPEDFATYYCQQSSYSLITFGQGTKVEIK
In assay [2], B2 returned a stoichiometry N of 4.

B3: Db-Fc 1.3 (Fc fusion)
VH: EVQLVESGGGLVQPGGSLRLSCAASGFNLRSYYMHWVRQAPGKGLEWVASISPHYGYTYYADSVKGRFTISADTSKNTAYLQMNSLRAEDTAVYYCARHGYSAMDYWGQGTLVTVSS
VL: DIQMTQSPSSLSASVGDRVTITCRASQSVSSAVAWYQQKPGKAPKLLIYSASSLYSGVPSRFSGSRSGTDFTLTISSLQPEDFATYYCQQSSDSLFTFGQGTKVEIK
In assay [3], B3 registered a UT-7/Epo cell proliferation, EC50; Hb-Fc3 fraction of variant 1.3 (putative hexamer) of 1.1 nM; a UT-7/Epo cell proliferation, EC50; purified Db-Fc fraction of variant 1.3 (putative dimer) of 16 nM; a UT-7/Epo cell proliferation, EC50; unfractionated Db-Fcmix 1.3 of 1.8 nM; a UT-7/Epo cell proliferation, maximum response; Hb-Fc3 fraction of variant 1.3 (putative hexamer) of 3.4e+06 RLU. In assay [3], this molecule returned a UT-7/Epo cell proliferation, maximum response; purified Db-Fc fraction of variant 1.3 (putative dimer) of 600000 RLU and a UT-7/Epo cell proliferation, maximum response; unfractionated Db-Fcmix 1.3 of 2.5e+06 RLU.
